In this test the target is T1, Quiescin-sulfhydryl oxidase (QSOX), recombinant human (human, UniProt O00391 30-709).
T1 construct: also called Human Qsox; recombinant QSOX
T1 sequence (looked up): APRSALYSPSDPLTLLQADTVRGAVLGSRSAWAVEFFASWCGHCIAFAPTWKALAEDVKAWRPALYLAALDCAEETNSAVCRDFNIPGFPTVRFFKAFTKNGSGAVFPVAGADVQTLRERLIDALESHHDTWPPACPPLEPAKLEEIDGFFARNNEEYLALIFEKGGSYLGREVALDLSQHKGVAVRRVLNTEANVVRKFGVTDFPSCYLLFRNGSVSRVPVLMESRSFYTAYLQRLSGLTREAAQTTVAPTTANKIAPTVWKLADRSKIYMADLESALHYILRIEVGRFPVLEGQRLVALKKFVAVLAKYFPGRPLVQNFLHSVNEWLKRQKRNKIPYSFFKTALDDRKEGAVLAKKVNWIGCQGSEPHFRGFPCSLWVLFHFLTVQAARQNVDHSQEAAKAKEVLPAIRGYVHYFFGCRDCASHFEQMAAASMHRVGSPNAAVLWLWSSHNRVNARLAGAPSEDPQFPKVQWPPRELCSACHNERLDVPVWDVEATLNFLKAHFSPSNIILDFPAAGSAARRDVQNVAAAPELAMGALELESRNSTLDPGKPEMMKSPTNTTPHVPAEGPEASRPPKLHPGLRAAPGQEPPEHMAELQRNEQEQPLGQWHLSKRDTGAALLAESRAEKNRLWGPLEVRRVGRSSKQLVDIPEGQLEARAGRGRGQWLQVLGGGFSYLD
Description: SPR; Biacore 3000; […]; 30 ul/min in PBS, 0.05% Tween 20, 3 mM EDTA at 25°C; 1:1 Langmuir model; […]. The following applies: both partners purified.

This passage reports Kd, koff and kon results from publication PMC5270677, “Quiescin-sulfhydryl oxidase inhibits prion formation in vitro” (Aging (Albany NY), 2016).

B1: recombinant full-length mouse PrP, MoPrP(23-230) (natural protein)
chain: not shown
notes: also called full-length moPrP (PrP23-231, in the abstract)
In the case of B1, the equilibrium dissociation constant (Kd) was determined as 2 nM, the koff came to 6.81e-05 s⁻¹ and the kon is 33400 M⁻¹ s⁻¹.

B2: recombinant full-length human PrP, HuPrP(23-231) (natural protein)
chain: not shown
Turning to B2, the Kd worked out at 1.7 nM, the koff was determined as 2e-05 s⁻¹ and the kon worked out at 11800 M⁻¹ s⁻¹.
